# From patent KR20190140944A
# Columns and labels:
# [1] = biological target: HER2 및 HER3 (ErbB-2 및 ErbB-3 양성 세포 상에 함께 발현) (human) (UniProt P04626); assay: steady-state cell affinity, 125I-labelled IgG on SK-BR-3 cells at 4 C; mean of 3 assays
# [2] = biological target: HER2 및 HER3 (ErbB-2 및 ErbB-3 양성 세포 상에 함께 발현) (human) (UniProt P04626); assay: steady-state cell affinity, 125I-labelled IgG on BT-474 cells at 4 C; mean of 3 assays
substance,measurement,setting,value
PB4188 (bispecific antibody),Kd,[1],2 nM
same,Kd,[2],3.2 nM
